Results reported in patent US20180021429A1, “ANTICANCER AGENTS OR ANTIMETASTATIC AGENTS USING FSTL1 AND COMBINATION DRUG THEREOF” (PHARMA FOODS INTERNATIONAL CO., LTD., priority 2015, published 2018).
Entries after “also recorded” stand apart in the source; their conditions may differ.

Biological target: T1, FSTL1 (Homo sapiens, UniProt Q12841)
T1 sequence (Q12841 21-308): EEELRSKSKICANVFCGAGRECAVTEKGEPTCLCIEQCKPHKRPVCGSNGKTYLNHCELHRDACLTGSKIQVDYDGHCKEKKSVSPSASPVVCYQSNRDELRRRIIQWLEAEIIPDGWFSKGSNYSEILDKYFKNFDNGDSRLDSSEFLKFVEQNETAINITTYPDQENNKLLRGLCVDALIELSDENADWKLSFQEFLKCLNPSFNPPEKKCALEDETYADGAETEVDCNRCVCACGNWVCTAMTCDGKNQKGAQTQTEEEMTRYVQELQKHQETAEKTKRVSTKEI
Assay: Ability of FSTL1-induced MSCs from mouse bone marrow cells to differentiate into adipocytes (Examples 14, 16)
Format: cell-based
Parameters: purchased R&D Systems, Inc. 1694-FN-050
Conditions: Example 16; antibody doses as in Example 15
Protocol: The antibody clone (#6-55, #7, […], #13, or #22) was evaluated for its activity by the same testing method as in Example 13. #6-55 was set as a positive control for activity. […] Mouse bone marrow cells were supplemented with FSTL1 and the predetermined concentration of each antibody and cultured for 8 days. 5×10^4 cells/well were separated from each culture system and evaluated for the ability to differentiate into adipocytes using an adipocyte differentiation reagent included in “Mesenchymal Stem Cell Functional Identification Kit (R&D Systems, Inc., Cat. No. SCO10)”. For the evaluation method, the cells were supplemented with the adipocyte differentiation reagent and cultured for 8 days. Then, adipocytes per culture system were counted under a microscope for evaluation. […]
In the same way as in Example 15, mouse bone marrow cells were supplemented with FSTL1 and the predetermined concentration of each antibody and cultured for 8 days. 5×10^4 cells/well were separated from each culture system and evaluated for the ability to differentiate into adipocytes using an adipocyte differentiation reagent included in “Mesenchymal Stem Cell Functional Identification Kit (R&D Systems, Inc., Cat. No. SC010)”. […] Then, adipocytes per culture system were counted under a microscope for evaluation (FIG. 40B). […]

B1: #6-55: chicken-mouse chimeric anti-FSTL1 antibody clone; variable regions SEQ ID NO: 783 (light), 785 (heavy) (antibody, V domains shown)
VH: AVTLDESGGGLQTPGGALSLVCKGSGFTFTSVTMQWVRQAPGKGLEWVASVCSGSSTYYAPAVKGRATISRDNGQSTVRLQLSNLRPEDTGTYYCAKIAGRARWSCTSAAYNIDAWGHGTEVIVSS
VL: ASTQPSSVSAIPGETVKITCSGGGNNYGWYQQRSPGSAPVTVIYYNDNRPSNIPSRFSGSTSGSTSTLTITGVQADDEAIYYCGSWDSNTDSGIFGAGTTLTVL
modifications: mouse constant regions
For B1, the “cells differentiating into adipocytes / induction of MSCs having the ability to differentiate into adipocytes” value was “decreased in number by the addition of #6-55 in a dose-dependent manner; also recorded: inhibited by 46-55 in an antibody dose-dependent manner; also recorded: inhibited by #6-55 in an antibody dose-dependent manner”.
